The nature of the series: soluble on expression in E. coli; label from the status in PepcDB or PDB records.
Take “GMVRRTRAEMEETRATLLATARKVFSERGYADTSMDDLTAQASLTRGALYHHFGDKKGLLAAVVEQIDAEMDERLQAISDTAEDDWEGFRCRCRAYLEMALEPEIQRIVLRDARAVLGGASPDSQRHCVESMQRLIDNLIRQGVVAEADPQALASLIYGSLAEAAFWIAEGEDGNARLAQGVAALELLLRGLLVKPR”: the “soluble on expression in E. coli” value is “soluble”. With “IVGGQECKDGECPWQALLINEENEGFCGGTILSEFYILTAAHCLYQAKRFKVRVGDRNTEQEEGGEAVHEVEVVIKHNRFTKETYDFDIAVLRLKTPITFRMNVAPACLPERDWAESTLMTQKTGIVSGFGRTHEKGRQSTRLKMLEVPYVDRNSCKLSSSFIITQNMFCAGYDTKQEDACQGDSGGPHVTRFKDTYFVTGIVSWGEGCARKGKYGIYTKVTAFLKWIDRSMKTRGLPKAKSHAPEVITSSPLK”, the “soluble on expression in E. coli” value is “soluble”.

For “MTSTSRPPARGSENNGSGGSDGSGSGEDKVKGPTDKELEDAVNKLVEVAKKKAQEEADQARRSVEGKKSFEGDVLEYPYTREEVTKMIEDGAKEIKERFAAVYTPKPDDFDTMISRMQQVEAVLGAYEPSKNTTKETPVIGGGGDLELLRTSVSDMSDWQGKLKNAFVDNYLTPFPRITVTQGGLARFLRHQAEWMQAIYKRRRYDAKKTADQGVEAIEAIDDSKGSEAAIALAAIIGLATLLGPMGSSLAFGLGTSAVVAGTGIGAEFIEEDKEVPLGADTVQGVIDNVYKALEESDKTMVEEEGKVLDALKQIEGVVYPLVMGPDIDKGTELTPMRPAIVDTMDVEELKDGITVYDRHPGGS”, the “soluble on expression in E. coli” value is recorded as “not soluble”. As for “MGSDKIHHHHHHRNGKTYTQPLTGQATDKIGEQIRELFNIDINPNGPAVKANNYVSTYMKRLYKQLENYEHGENHNEEEVNAWLSADRIVSHMAQEVSHRLDDGSYSIRFAKEHVPAKEGQSIVRAQLRIHIQGIVSPVFFYIEDTNLPGDTVLVSSDDPTVVTDVTTMVDRWSHLQLSTLPIVTARASTNDELKIEAFLVIALKDEDAGPPKKRSR”, the “soluble on expression in E. coli” value is reported as “not soluble”.

With “MSLKTLFDKTNLGTINMKNRFLRGALWTALADEKGHMTNELSDVYEELARGGVGTIVTGYAFVTENEQPNPRMMGIYDDSFIPEYKEFTDKIHRLGSNIIMQIVYGGFMTEFNVGERVIWGPSTTKNEVTGTLSREMTKEDIKYLVNAYAEAALRVKKSGFDGVEIHGGHGYLVSQFLSPYYNKRTDEYGGSIENRGRFVFEIFKAIREKVGEKFPILIKLNSSDYVKEGGLTIEDSLYVAERLAELGIDAIEVTGGNESIEEVMKNNLGPSRTKVAISKDRESYFKEYAIKLAERINKPVILSGGNRHFDVMEELLNDTNIEYFSLSRPLTAEPDLINKWYSGDLKKPKCKSCNQCYKTYGKRCIFNIKEGHHHHHH”, the “soluble on expression in E. coli” value is given as “soluble”.

Consider “SKVALITGVTGQDGSYLAEFLLEKGYEVHGIKRRASSFNTERVDHIYQDPHTCNPKFHLHYGDLSDTSNLTRILREVQPDEVYNLGAMSHVAVSFESPEYTADVDAMGTLRLLEAIRFLGLEKKTRFYQASTSELYGLVQEIPQKETTPFYPRSPYAVAKLYAYWITVNYRESYGMYACNGILFNHESPRRGETFVTRKITRAIANIAQGLESCLYLGNMDSLRDWGHAKDYVKMQWMMLQQEQPEDFVIATGVQYSVRQFVEMAAAQLGIKLRFEGTGVEEKGIVVSVTGHDAPGVKPGDVIIAVDPRYFRPAEVETLLGDPTKAHEKLGWKPEITLREMVSEMVANDLEAAKKHSLLKSHGYDVAIALES”, for which the “soluble on expression in E. coli” value is listed as “soluble”. Regarding “MAHHHHHHMGIGWEKLDNWEDVPDAGGKYGPLRGPSLVDLQGHVFAIAEAHCKDGGDCSDVGFTGIASKYLDLIGVADPTEILTADASIFGADLLKEGSEVISARNGITRPTTLVLGDSVYVLPGNYSHTGPQVGGTNERGLLLLKGTLTDEGGRKKIKWNETHVVEPQGRGDSRSLTELVGGGGSGAVLRDGTLVFPMQAKDKDGTSVLLSMRFPNSGNKWELSSETPGKGCRDPTLVKWEEKKDDERLFMMAHCAGDYYDVYRSTPHGVNWYTSGQPITRVWGNSHNRKGTVSGVDPPPQSLRKRS”, the “soluble on expression in E. coli” value was “not soluble”. Take “MSLDVSDDADRLQTLLYSSYSADVVRQLERPLLDDGVPLMRMAASAVARVTLSLLDDEDLDVEDARVTVLAGAGDNGGDGLYAGAELAREGAQVTAVAVGRSLHEDAFREFVRAGGRVLVLDPAADIPGCTSGFSAGEAGERLQAAVECARGAHVVLDAMTGIGVAGALRGVAGTLASSLGMDGVLPDKPALPNNDPSADLPLVVAVDAPSGVGVDDGSLPGPYIPADVTVTFGAMKPCAMVPPASYACGRITLVDFGFDVDDAVPFAEMTDGDFVADSVRLPSLADGKYSRGVVGLVTGSARYPGAAVLSARAAACANVGMVRYLGPQRAQDMILAVLPEAVLGKGRVQSWVVGSGVPAEGDVASGDDMQRATIAALLDHYALEDGDGSRNERAEGMPPIVVDAGALDLLPCHVVPQVVITPHAGELAALLNRLDADMADVVSRQWVEARPLRAALRAHELTGATVLLKGAVTIVVGADGDGNTRIILSGRAPAWMATAGSGDVLAGVLGALLAQQDDMLSDDPALVPEVAAAAAYMHGLAGAMASGSEQRGWHRPHLYGHAGKTPASAIGHPIVAGDVVAAVPRAFGELLREGHHHHHH”: the “soluble on expression in E. coli” value is “soluble”.

As to “MKMKLAVLPGDGIGPEVMDAAIRVLKTVLDNDGHEAVFENALIGGAAIDEAGTPLPEETLDICRRSDAILLGAVGGPKWDHNPASLRPEKGLLGLRKEMGLFANLRPVKAYATLLNASPLKRERVENVDLVIVRELTGGLYFGRPSERRGPGENEVVDTLAYTREEIERIIEKAFQLAQIRRKKLASVDKANVLESSRMWREIAEETAKKYPDVELSHMLVDSTSMQLIANPGQFDVIVTENMFGDILSDEASVITGSLGMLPSASLRSDRFGMYEPVHGSAPDIAGQGKANPLGTVLSAALMLRYSFGLEKEAAAIEKAVDDVLQDGYCTGDLQVANGKVVSTIELTDRLIEKLNNSAAGPRIFQ”, the “soluble on expression in E. coli” value is recorded as “soluble”.

Consider “GSSSSLPLYNQQVGDCCIIRVSLDVDNGNMYKSILVTSQDKAPTVIRKAMDKHNLDEDEPEDYELLQIISEDHKLKIPENANVFYAMNSAANYDFILKKR”, for which the “soluble on expression in E. coli” value was “soluble”. On to “EGAALTEKTDIFESGRNGKPNKDGIKSYRIPALLKTDKGTLIAGADERRLHSSDWGDIGMVIRRSEDNGKTWGDRVTITNLRDNPKASDPSIGSPVNIDMVLVQDPETKRIFSIYDMFPEGKGIFGMSSQKEEAYKKIDGKTYQILYREGEKGAYTIRENGTVYTPDGKATDYRVVVDPVKPAYSDKGDLYKGNQLLGNIYFTTNKTSPFRIAKDSYLWMSYSDDDGKTWSAPQDITPMVKADWMKFLGVGPGTGIVLRNGPHKGRILIPVYTTNNVSHLNGSQSSRIIYSDDHGKTWHAGEAVNDNRQVDGQKIHSSTMNNRRAQNTESTVVQLNNGDVKLFMRGLTGDLQVATSKDGGVTWEKDIKRYPQVKDVYVQMSAIHTMHEGKEYIILSNAGGPKRENGMVHLARVEENGELTWLKHNPIQKGEFAYNSLQELGNGEYGILYEHTEKGQNAYTLSFRKFNWDFLSKDLISPTEAKVKRTREMGKGVIGLEFDSEVLV”, for which the “soluble on expression in E. coli” value is listed as “soluble”. On to “MGSDKIHHHHHHMAVKRAYYGNDGDRDYFERVFQSANINFLIGSGASLPAINVLGTIENDLQQLINDEKEDEYFNMAAGFLSAVWLPHEYILDRGNDVAFPPPVISNVDYTRKNYDAFISSLEKILTRRRTGLLPRRINVFTTNYDLFIEEAATRNNNILFNDGFNKRMNVWGDEEFDAGSFNYSVSATGNLYNYKVELPTVNLIKLHGSFSWKHYKGRIIYNIGEKKPLNFATPAEMKKWVLAHALILPRKEKFKETLLQNVYYDLLRTYSNELDKEATLLVVFGFSFADEHLEMLTKKALRNATLKLLIFAFNEASVGGFMENFRDYSNVEIIYRPGGNVDFPVMNNIITCYLGGAR”, for which the “soluble on expression in E. coli” value is “not soluble”. Turning to “MDQIFNKVGSYWLGQKANKQFDSVGNDLNSVSTSIEGGTKWLVNKIKGKMQKPLPELLKEYDLPIGIFPGDATNYEFDEETKKLTVLIPSICEVGYKDSSVLKFTTTVTGHLEKGKLTDVEGIKTKVMIWVKVTSISTDASKVYFTAGMKKSRSRDAYEVQRNGLRVDKF”, the “soluble on expression in E. coli” value was “soluble”. Then “MGSDKIHHHHHHMIEMTRMAACAAVHHDTQATQTGAAYAPAEQGGEPRESSASAYFWVGIDAGGSHCRALLTDDSGQVLGHGVAGPANPVNGVSQSQAAIMSAIDKALGAARLDKQYHRLIVGAGLAGLHLPKMQQVMNEWAHPFAAWHTTTDLHVAALGAHQGADGGVIILGTGFSSLANVKGQQILIGGHGFPINATCSGSWFGLEAVKAVLLDADGIGPGTSLTGKLLQGTNAMALAEQLMHANATDFARFAPQVFEQAGAGDAVSLSLIEQGATFINGVIRRLLATGIDSLSLVGGIAPLMQPWLAPDLSTRIRTAKASPEEGAILFARQCHVGNSRIQER”, with “not soluble”; and “MSLQFSFDPVSNAPMVSFPSTQQPDLEKLRFKFAPVLSRSFAFNGGSRTGTLYGVQVPYVDNSKEFSQYAAKLFEVYKSLGADKQFAVPTIGLINHTSTLEHNQTVNLALEAIVSELELFIESLKYSGRQQRLVDLEECLSILNCLKTVQFTLDSEEENSRAKFIDSLISWVNRTDGEPSEAVIAKVLGDGKQTPILENPYFWRLLCQLIIRGLFDQAVAAIEKSELLSYLADKCSATHTMVQDMVNLLQGYPRELEPVYREWKDLVLQLHLNWSQSEHKISIELASSLEDCLLIMCGNKSKIIYYSKTWYECYCGLMLYYIPSLQLSEEYLQLVLKEHPLDVTSPWEQACVSIITGKIYSILPVLDSLDSCTAAFTAAICEAKGLLENDLLDDGGLEVSNTGDEMFGLGNTMASYLLNQFALSIVTYEDKNLWAVAIGIIYLTPNYSDAAKRMMIAELLPHYPFQTNDDIEWMLTICAKWKLPQIARTIYRVLGQEALYLNNIIEAISNFSKAGEFEWVKEGHHHHHH”, with “soluble”. In the case of “MSSLARGISRRRTEVATQVEAAPTGLRPNAVVGVRLAALADQVGAALAEGPAQRAVTEDRTVTGVTLRAQDVSPGDLFAALTGSTTHGARHVGDAIARGAVAVLTDPAGVAEIAGRAAVPVLVHPAPRGVLGGLAATVYGHPSERLTVIGITGTSGKTTTTYLVEAGLRAAGRVAGLIGTIGIRVGGADLPSALTTPEAPTLQAMLAAMVERGVDTVVMEVSSHALALGRVDGTRFAVGAFTNLSRDHLDFHPSMADYFEAKASLFDPDSALRARTAVVCIDDDAGRAMAARAADAITVSAADRPAHWRATDVAPTDAGGQQFTAIDPAGVGHHIGIRLPGRYNVANCLVALAILDTVGVSPEQAVPGLREIRVPGRLEQIDRGQGFLALVDYAHKPEALRSVLTTLAHPDRRLAVVFGAGGDRDPGKRAPMGRIAAQLADLVVVTDDNPRDEDPTAIRREILAGAAEVGGDAQVVEIADRRDAIRHAVAWARPGDVVLIAGKGHETGQRGGGRVRPFDDRVELAAALEALERRA”, the “soluble on expression in E. coli” value was “soluble”. Regarding “MSAANPTRDDFASLLEESFTTGHSGEGQVVKGTITAIEKDMAIIDVGLKVEGRVPLKEFGVKGKDTTLKVGDTVEVYVERIENALGEAMLSREKARREESWVRLEEKFTKGERVEGVIFNQVKGGFTVDLDGAVAFLPRSQVDIRPIRDVSPLMHNPQPFEILKMDRRRGNIVVSRRTVLEESRAEQRSEIVQNLEEGQVVEGVVKNITDYGAFVDLGGIDGLLHVTDMAWRRVNHPTEILNIGQTVKVQIIRINQETHRISLGMKQLESDPWSEIGTKFPIGKKIKGTVTNITDYGAFVELEPGIEGLIHVSEMSWTKKNVHPGKILSTTQEVDVVVLEVDPAKRRISLGLKQTLENPWEAFARNHPVGSQVEGEVKNKTEFGLFIGLEGDVDGMVHLSDLDWTRPGEQVIEEYNRGDMVKAQVLDVDIEKERISLGIKQLARDTVGEAATSGELRKNAVVTCEVIGVKDGGLEVRLVDSGIETFIKRSDLSRDRDEQRPERFTVGQKVDARVIAFDKKTRKLQVSIKALEIAEEKEAVAQYGSTDSGASLGDILGAALKKQGNLEHHHHHH”, the “soluble on expression in E. coli” value is listed as “soluble”.

The record behind these values is the DeepSol protein solubility set.
